Data taken from PMC8191757, “m6A RNA methylation of major satellite repeat transcripts facilitates chromatin association and RNA:DNA hybrid formation in mouse heterochromatin”.

Molecular target: T1, NLS-HBD(H1)-eGFP (mouse, UniProt O70338 27-76)
T1 chain: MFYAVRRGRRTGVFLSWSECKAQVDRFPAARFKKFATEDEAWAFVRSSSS
Experiment: EMSA; comparable to unmodified; EMSA: 20 nM hybrid, 125 nM-0.5 uM protein, 20 mM Tris-HCl pH 8.0, 150 mM NaCl, 5 mM MgCl2, 12.5% glycerol, 0.05% Triton X-100, 1 mM DTT, 1 h at 4 C
Conditions: protein: recombinant, tags: N-terminal NLS PKKKRKV, 6xHis-MBP cleaved by AcTEV, label: 5'-Cy5 on RNA, blunt

B1: MSR SR2 RNA:DNA hybrid, m6A (DNA:RNA)
RNA: UUUUCCACCUUUUUCAGUUUUCCUCGCCAUAUUUC
DNA: GAAATATGGCGAGGAAAACTGAAAAAGGTGGAAAA
modifications: m6A at RNA positions 7, 16, 29, 31
B1: binds.
